The values below come from US20200390902A1, “Antibody-Drug Conjugates Targeted at Human Aspartyl-(Asparaginyl)-B-Hydroxylase (HAAH)” (Panacea Pharmaceuticals, Inc., priority 2017, published 2020).

Where only a bound is given, the exact number is not on record here.

Experiment [1] addresses T1, HAAH catalytic domain (human, UniProt Q12797).
T1 sequence: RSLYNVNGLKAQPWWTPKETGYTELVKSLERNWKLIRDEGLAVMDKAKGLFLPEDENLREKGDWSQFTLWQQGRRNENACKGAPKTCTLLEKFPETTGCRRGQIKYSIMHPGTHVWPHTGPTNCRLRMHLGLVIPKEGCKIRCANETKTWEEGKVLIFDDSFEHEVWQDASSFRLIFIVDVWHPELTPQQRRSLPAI
Kind of experiment: ELISA on plates coated with HAAH catalytic domain. As for the experimental part:
The catalytic domain of HAAH (HAAH-cat) is exposed at the surface of HAAH-expressing cancer cells. The binding of SNS622-MC-DM1 at different drug-antibody ratio (DAR) and pH to HAAH-cat was measured using IgG1λ as control. The plates were coated with HAAH by treating with […] HAAH catalytic domain overnight. Following blocking with 1% Non-Fat Dry Milk in PBS for one hour, the plates were incubated for 45 minutes at 37° C. with 11.1 mg/ml IgG1λ; 9.6 mg/ml SNS622; 4.8 mg/ml SNS622-MC-DM1 at DAR 2.5, pH 7.0; 5.9 mg/ml SNS622-MC-DM1 at DAR 2.5, pH8.0; 6.1 mg/ml SNS622-DM1 at DAR 5.0, pH 7.0; 5.7 mg/ml SNS622-MC-DM1 at DAR 5.0, pH8.0; 4.1 mg/ml SNS622-DM1 at DAR 10.0, pH7.0; or 4.4 mg/ml SNS622-MC-DM1 at DAR 10.0, pH8.0. Following 5 PBS rinses the plates were incubated with 1:100 goat anti-human IgG (8)-HRP for 30 minutes at 37° C., Following five PBS rinses TMB substrate was added, and after a 15-minute incubation at room temperature, Stop solution was added to terminate the reactions. The plates were read at 450 nm using a 96-well plate reader (ELx808, BioTek). The binding results are shown below in Table VI

Experiment [2] deals with T1, HAAH catalytic domain. The experiment is described as follows: ELISA on plates coated with HAAH catalytic domain; [Protein] 11.1 mg/ml.
In experiment [3] the target is H460 lysate. Kind of experiment: ELISA on plates coated with H460 lysate, percent of loading amount bound.
The target in experiment [4] is Human aspartyl (asparaginyl) β-hydroxylase (HAAH) (human) (UniProt Q12797).
For experiment [5] the target is unchanged. This is another data set of the same source.
Experiment [6] shares this target. This is another data set of the same source.
Experiment [7] has the same target. This is another data set of the same source.
For experiment [8], the target named is T2, Human aspartyl (asparaginyl) β-hydroxylase (HAAH) (human, UniProt Q12797).
T2 sequence: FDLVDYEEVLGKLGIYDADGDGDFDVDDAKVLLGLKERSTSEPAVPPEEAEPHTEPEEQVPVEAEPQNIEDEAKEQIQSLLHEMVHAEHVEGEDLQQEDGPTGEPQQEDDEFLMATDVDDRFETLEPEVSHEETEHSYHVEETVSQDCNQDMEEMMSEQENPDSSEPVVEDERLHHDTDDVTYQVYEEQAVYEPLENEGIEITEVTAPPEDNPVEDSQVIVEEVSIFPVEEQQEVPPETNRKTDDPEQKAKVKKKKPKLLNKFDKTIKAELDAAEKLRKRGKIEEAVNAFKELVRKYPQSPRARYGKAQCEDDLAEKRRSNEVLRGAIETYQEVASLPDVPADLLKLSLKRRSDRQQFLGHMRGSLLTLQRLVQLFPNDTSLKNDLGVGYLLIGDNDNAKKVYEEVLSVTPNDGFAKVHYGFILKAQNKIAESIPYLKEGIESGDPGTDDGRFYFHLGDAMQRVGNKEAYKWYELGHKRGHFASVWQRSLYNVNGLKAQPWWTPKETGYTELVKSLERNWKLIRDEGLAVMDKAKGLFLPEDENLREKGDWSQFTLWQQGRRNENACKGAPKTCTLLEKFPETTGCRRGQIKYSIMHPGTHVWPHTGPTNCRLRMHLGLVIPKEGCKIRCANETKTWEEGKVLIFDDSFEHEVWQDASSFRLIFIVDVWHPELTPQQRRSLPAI
Kind of experiment: immunoassay on fixed H460 cells; printed as 'binding affinities'.

Experiment [9] addresses Human aspartyl (asparaginyl) β-hydroxylase (HAAH) (human) (UniProt Q12797). This is another data set of the same source.
The target of experiment [10] is T2, Human aspartyl (asparaginyl) …. The experiment is described as follows: cell-based or functional assay.

In [1], “IgG1λ (non-specific monoclonal antibody)” had a % Binding of 0.01%. In addition, the [Average]* in [2] is below 0.001 mg/mL. Also, the Percent binding in experiment [3] is below 0.002%.

For “IgG1λ-MC-DM1 (non-specific ADC) (antibody)”, in experiment [3], the Percent binding was below 0.002%.

B1: SNS622-MC-DM1 (antibody, V domains shown)
VH: QVQLQQSGPGLVKPSQTLSLTCAISGDSVSSNSAAWNWIRQSPSRGLEWLGRTYYRSKWYNDYAVSVKSRITINPDTSKNQFSLQLNSVTPEDTAVYYCARTGYSSSWVVNFDYWGQGTLVTVSS
VL: QPVLTQSPSASGTPGQRVTISCSGSSSNIGSNYVYWYQQLPGTAPKLLIYKNNQRPSGVPDRFSGSKSGTAASLAISGLQSEDEADYYCAAWDDSLRGYVFGTGTKLTVLG
modifications: MC-DM1 (maleimidocaproyl-mertansine) on cysteine thiols of reduced disulfide bonds, positions not given; MC-DM1 (maleimidocaproyl-mertansine) on cysteine thiols of reduced disulfide bonds, positions not given
In experiment [4], B1 displayed an IC50 of MTS, H460 cells, 72 h of 64 nM and an LC50 of LDH, H460 cells, 72 h of 36 nM. In addition, the EC50, H460 cell viability, MTS assay, 24 h in [5] stood at 15 nM. For the same molecule, in experiment [6], the LDH release, H460 cells, 32 nM, 72 h (× (over untreated H460 cells)) is 39. Moreover, the MTS assay, MIA-PaCa-2 ASPH cells, 10, 20 or 50 nM, 48 h (% reduction of relative absorbance) in experiment [7] was found to be 16. The molecule also returned a Kd in [8] of around 0.1 nM. Further, in experiment [3], the Percent binding was 107%.

B2: SNS622-DM1B1 (antibody, V domains shown)
VH: B1 VH
VL: B1 VL
modifications: MC-DM1 on cysteine thiols of reduced disulfide bonds, positions not given; reaction DAR 5:1, pH 7, final DAR 3.22; MC-DM1 on cysteine thiols of reduced disulfide bonds, positions not given
Turning to B2, the “% Binding” value in experiment [1] worked out at 81.2%.

B3: SNS622-MC-vc-PAB-MMAE (antibody, V domains shown)
VH: B1 VH
VL: B1 VL
modifications: MC-vc-PAB-MMAE on cysteine thiols of reduced disulfide bonds, positions not given; reaction DAR 10:1, final DAR 6.31; MC-vc-PAB-MMAE on cysteine thiols of reduced disulfide bonds, positions not given
B3 had an EC50, H460 cell viability, MTS assay, 24 h in experiment [5] of 60 nM. Also, in experiment [9], the IC50, MOLM-14 cell viability, MTS assay, 24 h came to 50 nM. In addition, the Kd in experiment [8] is around 0.2 nM.

B4: SNS622-DM1B2 (antibody, V domains shown)
VH: B1 VH
VL: B1 VL
modifications: MC-DM1 on cysteine thiols of reduced disulfide bonds, positions not given; reaction DAR 5:1, pH 8, final DAR 3.36; MC-DM1 on cysteine thiols of reduced disulfide bonds, positions not given
For the molecule B4, the “% Binding” value in experiment [1] was determined as 89.5%.

B5: SNS622-DM1A2 (antibody, V domains shown)
VH: B1 VH
VL: B1 VL
modifications: MC-DM1 on cysteine thiols of reduced disulfide bonds, positions not given; reaction DAR 2.5:1, pH 8, final DAR 2.10; MC-DM1 on cysteine thiols of reduced disulfide bonds, positions not given
With B5, in experiment [1], the “% Binding” value was determined as 84.8%.

B6: SNS622-DM1A1 (antibody, V domains shown)
VH: B1 VH
VL: B1 VL
modifications: MC-DM1 on cysteine thiols of reduced disulfide bonds, positions not given; reaction DAR 2.5:1, pH 7, final DAR 2.00; MC-DM1 on cysteine thiols of reduced disulfide bonds, positions not given
Turning to B6, the “% Binding” value in [1] is 75.1%.

B7: SNS622-DM1C1 (antibody, V domains shown)
VH: B1 VH
VL: B1 VL
modifications: MC-DM1 on cysteine thiols of reduced disulfide bonds, positions not given; reaction DAR 10:1, pH 7, final DAR 5.08; MC-DM1 on cysteine thiols of reduced disulfide bonds, positions not given
B7: the “% Binding” value in experiment [1] was 11.7%.

B8: SNS622-MC-MMAE (antibody, V domains shown)
VH: B1 VH
VL: B1 VL
modifications: MC-MMAE on cysteine thiols of reduced disulfide bonds, positions not given; reaction DAR 10:1 gives final DAR 5.72 (also made at 2.5:1 and 5:1); MC-MMAE on cysteine thiols of reduced disulfide bonds, positions not given
For the molecule B8, the “IC50 of MTS, H460 cells, 72 h” value in experiment [10] was 48 nM.

B9: SNS622 (antibody, V domains shown)
VH: B1 VH
VL: B1 VL
As to B9, the “% Binding” value in [1] is 97.6%. In addition, the Percent binding in experiment [3] is 92%.

B10: SNS622-DM1C2 (antibody, V domains shown)
VH: B1 VH
VL: B1 VL
modifications: MC-DM1 on cysteine thiols of reduced disulfide bonds, positions not given; reaction DAR 10:1, pH 8, final DAR 5.81; MC-DM1 on cysteine thiols of reduced disulfide bonds, positions not given
Consider B10, for which the “% Binding” value in experiment [1] turned out to be 80.5%.

B11: SNS622-MC-vc-PAB-DM1 (antibody, V domains shown)
VH: B1 VH
VL: B1 VL
modifications: MC-vc-PAB-DM1 on cysteine thiols of reduced disulfide bonds, positions not given; reaction DAR 10:1 gives final DAR 6.56 (also made at 2.5:1 and 5:1); MC-vc-PAB-DM1 on cysteine thiols of reduced disulfide bonds, positions not given
In the case of B11, in [10], the “IC50 of MTS, H460 cells, 72 h” value is 123 nM.

B12: SNS622-MC-PEG4-vc-PAB-DMEA-DUO (antibody, V domains shown)
VH: B1 VH
VL: B1 VL
modifications: MC-PEG4-vc-PAB-DMEA-duocarmycin on cysteine thiols of reduced disulfide bonds, positions not given; reaction DAR 2.2:1, final DAR 1.92:1; MC-PEG4-vc-PAB-DMEA-duocarmycin on cysteine thiols of reduced disulfide bonds, positions not given
B12 showed an EC50, H460 cell viability, MTS assay, 24 h in experiment [5] of 300 nM. This molecule also registered an IC50, MOLM-14 cell viability, MTS assay, 24 h in experiment [9] of 60 nM. Besides, the Kd in experiment [8] was around 0.5 nM.
